Assay results taken from patent US20140023630A1 (REGENTS OF THE UNIVERSITY OF COLORADO A BODY CORPORATE, published 2014).

Biological target: the molecule itself
Assay: self-association; native PAGE and Western blot of E. coli lysate soluble fraction
Procedure: Western blot analysis of crude cell lysates under both denaturing and native conditions was performed as described previously (Janosik, 2001, supra) with some modifications. Soluble fractions of E. coli lysates containing the expressed mutant proteins were mixed with sample buffer and run on a 6% native PAGE without a stacking gel. The final composition of the sample buffer was: 50 mM Tris-HCl, pH 8.9, 1 mM DTT, 10% glycerol, 0.001% bromphenol blue. Detection of heme was performed using a previously described method that relies on heme peroxidase activity (Vargas et al., 1993, Anal. Biochem. 209(2), 323-6).

Row | Protein | binding result
1 | human CBS deletion mutant Δ1-70 (enzyme, The sense primer brings in an Nco I site at the 5' end; No fusion partner, E. coli lysate; Reported as a tetramer; also called pKK CBS Δ1-70) AKSPKILPDILKKIGDTPMVRINKIGKKFGLKCELLAKCEFFNAGGSVKDRISLRMIEDAERDGTLKPGDTIIEPTSGNTGIGLALAAAVRGYRCIIVMPEKMSSEKVDVLRALGAEIVRTPTNARFDSPESHVGVAWRLKNEIPNSHILDQYRNASNPLAHYDTTADEILQQCDGKLDMLVASVGTGGTITGIARKLKEKCPGCRIIGVDPEGSILAEPEELNQTEQTTYEVEGIGYDFIPTVLDRTVVDKWFKSNDEEAFTFARMLIAQEGLLCGGSAGSTVAVAVKAAQELQEGQRCVVILPDSVRNYMTKFLSDRWMLQKGFLKEEDLTEKKPWWWHLRVQELGLSAPLTVLPTITCGHTIEILREKGFDQAPVVDEAGVILGMVTLGNMLSSLLAGKVQPSDQVGKVIYKQFKQIRLTDTLGRLSHILEMDHFALVVHEQIQYHSTGKSSQRQMVFGVVTAIDLLNFVAAQERDQK | binds
2 | human CBS deletion mutant Δ442-551 (enzyme, No fusion partner, E. coli lysate; Reported as a dimer) MPSETPQAEVGPTGCPHRSGPHSAKGSLEKGSPEDKEAKEPLWIRPDAPSRCTWQLGRPASESPHHHTAPAKSPKILPDILKKIGDTPMVRINKIGKKFGLKCELLAKCEFFNAGGSVKDRISLRMIEDAERDGTLKPGDTIIEPTSGNTGIGLALAAAVRGYRCIIVMPEKMSSEKVDVLRALGAEIVRTPTNARFDSPESHVGVAWRLKNEIPNSHILDQYRNASNPLAHYDTTADEILQQCDGKLDMLVASVGTGGTITGIARKLKEKCPGCRIIGVDPEGSILAEPEELNQTEQTTYEVEGIGYDFIPTVLDRTVVDKWFKSNDEEAFTFARMLIAQEGLLCGGSAGSTVAVAVKAAQELQEGQRCVVILPDSVRNYMTKFLSDRWMLQKGFLKEEDLTEKKPWWWHLRVQELGLSAPLTVLPTITCGHTIEILREK | binds
3 | human CBS deletion mutant Δ414-551 (enzyme, Lacks the entire C-terminal regulatory region; No fusion partner, E. coli lysate; Reported as a dimer) MPSETPQAEVGPTGCPHRSGPHSAKGSLEKGSPEDKEAKEPLWIRPDAPSRCTWQLGRPASESPHHHTAPAKSPKILPDILKKIGDTPMVRINKIGKKFGLKCELLAKCEFFNAGGSVKDRISLRMIEDAERDGTLKPGDTIIEPTSGNTGIGLALAAAVRGYRCIIVMPEKMSSEKVDVLRALGAEIVRTPTNARFDSPESHVGVAWRLKNEIPNSHILDQYRNASNPLAHYDTTADEILQQCDGKLDMLVASVGTGGTITGIARKLKEKCPGCRIIGVDPEGSILAEPEELNQTEQTTYEVEGIGYDFIPTVLDRTVVDKWFKSNDEEAFTFARMLIAQEGLLCGGSAGSTVAVAVKAAQELQEGQRCVVILPDSVRNYMTKFLSDRWMLQKGFLKEEDLTEKKPWWWHLR | binds
4 | human CBS deletion mutant Δ551 (enzyme, Lacks the C-terminal lysine; No fusion partner, E. coli lysate; Reported as a tetramer; also called pKK CBS Δ551) MPSETPQAEVGPTGCPHRSGPHSAKGSLEKGSPEDKEAKEPLWIRPDAPSRCTWQLGRPASESPHHHTAPAKSPKILPDILKKIGDTPMVRINKIGKKFGLKCELLAKCEFFNAGGSVKDRISLRMIEDAERDGTLKPGDTIIEPTSGNTGIGLALAAAVRGYRCIIVMPEKMSSEKVDVLRALGAEIVRTPTNARFDSPESHVGVAWRLKNEIPNSHILDQYRNASNPLAHYDTTADEILQQCDGKLDMLVASVGTGGTITGIARKLKEKCPGCRIIGVDPEGSILAEPEELNQTEQTTYEVEGIGYDFIPTVLDRTVVDKWFKSNDEEAFTFARMLIAQEGLLCGGSAGSTVAVAVKAAQELQEGQRCVVILPDSVRNYMTKFLSDRWMLQKGFLKEEDLTEKKPWWWHLRVQELGLSAPLTVLPTITCGHTIEILREKGFDQAPVVDEAGVILGMVTLGNMLSSLLAGKVQPSDQVGKVIYKQFKQIRLTDTLGRLSHILEMDHFALVVHEQIQYHSTGKSSQRQMVFGVVTAIDLLNFVAAQERDQ | binds
5 | human CBS deletion mutant Δ1-39 (enzyme, The sense primer brings in an Nco I site at the 5' end; No fusion partner, E. coli lysate; Reported as a tetramer; also called pKK CBS Δ1-39) EPLWIRPDAPSRCTWQLGRPASESPHHHTAPAKSPKILPDILKKIGDTPMVRINKIGKKFGLKCELLAKCEFFNAGGSVKDRISLRMIEDAERDGTLKPGDTIIEPTSGNTGIGLALAAAVRGYRCIIVMPEKMSSEKVDVLRALGAEIVRTPTNARFDSPESHVGVAWRLKNEIPNSHILDQYRNASNPLAHYDTTADEILQQCDGKLDMLVASVGTGGTITGIARKLKEKCPGCRIIGVDPEGSILAEPEELNQTEQTTYEVEGIGYDFIPTVLDRTVVDKWFKSNDEEAFTFARMLIAQEGLLCGGSAGSTVAVAVKAAQELQEGQRCVVILPDSVRNYMTKFLSDRWMLQKGFLKEEDLTEKKPWWWHLRVQELGLSAPLTVLPTITCGHTIEILREKGFDQAPVVDEAGVILGMVTLGNMLSSLLAGKVQPSDQVGKVIYKQFKQIRLTDTLGRLSHILEMDHFALVVHEQIQYHSTGKSSQRQMVFGVVTAIDLLNFVAAQERDQK | binds
6 | human CBS deletion mutant Δ497-551 (enzyme, No fusion partner, E. coli lysate; Reported as a dimer) MPSETPQAEVGPTGCPHRSGPHSAKGSLEKGSPEDKEAKEPLWIRPDAPSRCTWQLGRPASESPHHHTAPAKSPKILPDILKKIGDTPMVRINKIGKKFGLKCELLAKCEFFNAGGSVKDRISLRMIEDAERDGTLKPGDTIIEPTSGNTGIGLALAAAVRGYRCIIVMPEKMSSEKVDVLRALGAEIVRTPTNARFDSPESHVGVAWRLKNEIPNSHILDQYRNASNPLAHYDTTADEILQQCDGKLDMLVASVGTGGTITGIARKLKEKCPGCRIIGVDPEGSILAEPEELNQTEQTTYEVEGIGYDFIPTVLDRTVVDKWFKSNDEEAFTFARMLIAQEGLLCGGSAGSTVAVAVKAAQELQEGQRCVVILPDSVRNYMTKFLSDRWMLQKGFLKEEDLTEKKPWWWHLRVQELGLSAPLTVLPTITCGHTIEILREKGFDQAPVVDEAGVILGMVTLGNMLSSLLAGKVQPSDQVGKVIYKQFKQIRLTDTL | binds
7 | human CBS deletion mutant Δ544-551 (enzyme, No fusion partner, E. coli lysate; Reported as a tetramer) MPSETPQAEVGPTGCPHRSGPHSAKGSLEKGSPEDKEAKEPLWIRPDAPSRCTWQLGRPASESPHHHTAPAKSPKILPDILKKIGDTPMVRINKIGKKFGLKCELLAKCEFFNAGGSVKDRISLRMIEDAERDGTLKPGDTIIEPTSGNTGIGLALAAAVRGYRCIIVMPEKMSSEKVDVLRALGAEIVRTPTNARFDSPESHVGVAWRLKNEIPNSHILDQYRNASNPLAHYDTTADEILQQCDGKLDMLVASVGTGGTITGIARKLKEKCPGCRIIGVDPEGSILAEPEELNQTEQTTYEVEGIGYDFIPTVLDRTVVDKWFKSNDEEAFTFARMLIAQEGLLCGGSAGSTVAVAVKAAQELQEGQRCVVILPDSVRNYMTKFLSDRWMLQKGFLKEEDLTEKKPWWWHLRVQELGLSAPLTVLPTITCGHTIEILREKGFDQAPVVDEAGVILGMVTLGNMLSSLLAGKVQPSDQVGKVIYKQFKQIRLTDTLGRLSHILEMDHFALVVHEQIQYHSTGKSSQRQMVFGVVTAIDLLNFV | binds
8 | human CBS deletion mutant Δ489-551 (enzyme, No fusion partner, E. coli lysate; Reported as a dimer) MPSETPQAEVGPTGCPHRSGPHSAKGSLEKGSPEDKEAKEPLWIRPDAPSRCTWQLGRPASESPHHHTAPAKSPKILPDILKKIGDTPMVRINKIGKKFGLKCELLAKCEFFNAGGSVKDRISLRMIEDAERDGTLKPGDTIIEPTSGNTGIGLALAAAVRGYRCIIVMPEKMSSEKVDVLRALGAEIVRTPTNARFDSPESHVGVAWRLKNEIPNSHILDQYRNASNPLAHYDTTADEILQQCDGKLDMLVASVGTGGTITGIARKLKEKCPGCRIIGVDPEGSILAEPEELNQTEQTTYEVEGIGYDFIPTVLDRTVVDKWFKSNDEEAFTFARMLIAQEGLLCGGSAGSTVAVAVKAAQELQEGQRCVVILPDSVRNYMTKFLSDRWMLQKGFLKEEDLTEKKPWWWHLRVQELGLSAPLTVLPTITCGHTIEILREKGFDQAPVVDEAGVILGMVTLGNMLSSLLAGKVQPSDQVGKVIYKQFK | binds
9 | human CBS double deletion mutant Δ1-70 Δ401-551 (expressed without fusion partner) (enzyme, pKK construct; E. coli lysate; Reported as a dimer; also called CBS DD) AKSPKILPDILKKIGDTPMVRINKIGKKFGLKCELLAKCEFFNAGGSVKDRISLRMIEDAERDGTLKPGDTIIEPTSGNTGIGLALAAAVRGYRCIIVMPEKMSSEKVDVLRALGAEIVRTPTNARFDSPESHVGVAWRLKNEIPNSHILDQYRNASNPLAHYDTTADEILQQCDGKLDMLVASVGTGGTITGIARKLKEKCPGCRIIGVDPEGSILAEPEELNQTEQTTYEVEGIGYDFIPTVLDRTVVDKWFKSNDEEAFTFARMLIAQEGLLCGGSAGSTVAVAVKAAQELQEGQRCVVILPDSVRNYMTKFLSDRWMLQKGFLKEE | binds
